Values quoted from earlier work, collected in patent US20260009081A1, “CLONAL HEMATOPOIESIS AND CYTOKINE TARGETS” (TRUSTEES OF BOSTON UNIVERSITY, priority 2018, published 2026).

Molecular target: T1, IL-1β (Homo sapiens, UniProt P01584)
T1 construct: endogenous in cells; host or cells: CANTOS trial patients (endogenous cytokine)

canakinumab: IL-1β neutralizing antibody; interleukin 1 beta monoclonal antibody
side effect of therapy (patients): infection side effect | major adverse cardiovascular events (patients with stable coronary artery disease and elevated C-reactive protein): can reduce major adverse cardiovascular events
